From patent publication US9802997B2, “Peptides and combination of peptides for use in immunotherapy against various tumors” (immatics biotechnologies GmbH, priority 2015, dated 2017)

Target: HLA-A*02:01 (Homo sapiens, UniProt P04439, D140Y/D185E/D98H/E176V/E277Q/G131W/G231S/I119V/I121R/I166T/I218V/L300P/L318F/N151K/N90K/P208A/P217A/Q86G/Q94H/R138H/R169H/T345S)
Assay: MHC binding assay (UV-ligand exchange, beta2m ELISA)
Settings: binding to HLA-A*02:01, β2m ELISA
Description: Candidate peptides for T cell based therapies according to the present invention were further tested for their MHC binding capacity (affinity). The individual peptide-MHC complexes were produced by UV-ligand exchange, where a UV-sensitive peptide is cleaved upon UV-irradiation, and exchanged with the peptide of interest as analyzed. Only peptide candidates that can effectively bind and stabilize the peptide-receptive MHC molecules prevent dissociation of the MHC complexes. To determine the yield of the exchange reaction, an ELISA was performed based on the detection of the light chain (β2m) of stabilized MHC complexes. The assay was performed as generally described in Rodenko et al. (Rodenko et al., 2006).
96 well MAXISorp plates (NUNC) were coated over night with 2 ug/ml streptavidin in PBS at room temperature, washed 4× and blocked for 1 h at 37° C. in 2% BSA containing blocking buffer. Refolded HLA-A*02:01/MLA-001 monomers served as standards, covering the range of 15-500 ng/ml. Peptide-MHC monomers of the UV-exchange reaction were diluted 100 fold in blocking buffer. Samples were incubated for 1 h at 37° C., washed four times, incubated with 2 ug/ml HRP conjugated anti-β2m for 1 h at 37° C., washed again and detected with TMB solution that is stopped with […]. Absorption was measured at 450 nm. Candidate peptides that show a high exchange yield (preferably higher than 50%, most preferred higher than 75%) are generally preferred for a generation and production of antibodies or fragments thereof, and/or T cell receptors or fragments thereof, as they show sufficient avidity to the MHC molecules and prevent dissociation of the MHC complexes.

Substance | Peptide exchange (MHC class I binding score, peptide exchange yield)
48 (KISDFGLATV; listed as Homo sapiens) [compound 48] | +++ (≧50 = +++)
88 (LLLPLELSLA; listed as Homo sapiens) [compound 88] | +++ (≧50 = +++)
69 (LKVLKADVVL; listed as Homo sapiens) [compound 69] | ++ (≧20% = ++)
107 (RVLPGQAVTGV; listed as Homo sapiens) [compound 107] | ++ (≧20% = ++)
116 (ALLSSVAEA; listed as Homo sapiens) [compound 116] | ++ (≧20% = ++)
40 (KIWEELSVLEV; listed as Homo sapiens) [compound 40] | +++ (≧50 = +++)
86 (SLFSNIESV; listed as Homo sapiens) [compound 86] | +++ (≧50 = +++)
75 (ALLDGALQL; listed as Homo sapiens) [compound 75] | +++ (≧50 = +++)
108 (FIANLPPELKA; listed as Homo sapiens) [compound 108] | +++ (≧50 = +++)
119 (SLIEESEEL; listed as Homo sapiens) [compound 119] | ++ (≧20% = ++)
63 (KLLPMVIQL; listed as Homo sapiens) [compound 63] | +++ (≧50 = +++)
3 (RVIDDSLVVGV; listed as Homo sapiens) [compound 3] | +++ (≧50 = +++)
123 (QTAPEEAFIKL; listed as Homo sapiens) [compound 123] | + (≧10% = +)
99 (TLFGIQLTEA; listed as Homo sapiens) [compound 99] | +++ (≧50 = +++)
5 (GLVDIMVHL; listed as Homo sapiens) [compound 5] | +++ (≧50 = +++)
6 (FLNAIETAL; listed as Homo sapiens) [compound 6] | ++++ (≧75% = ++++)
41 (IVTEIISEI; listed as Homo sapiens) [compound 41] | +++ (≧50 = +++)
98 (FVQEKIPEL; listed as Homo sapiens) [compound 98] | +++ (≧50 = +++)
87 (KLLSLLEEA; listed as Homo sapiens) [compound 87] | +++ (≧50 = +++)
53 (AQHLSTLLL; listed as Homo sapiens) [compound 53] | + (≧10% = +)
70 (GLTEKTVLV; listed as Homo sapiens) [compound 70] | ++ (≧20% = ++)
61 (ALYPKEITL; listed as Homo sapiens) [compound 61] | +++ (≧50 = +++)
132 (ALLNNVIEV; listed as Homo sapiens) [compound 132] | +++ (≧50 = +++)
105 (AMLASQTEA; listed as Homo sapiens) [compound 105] | ++ (≧20% = ++)
58 (HLLGEGAFAQV; listed as Homo sapiens) [compound 58] | +++ (≧50 = +++)
54 (YLVPGLVAA; listed as Homo sapiens) [compound 54] | +++ (≧50 = +++)
57 (TLYPGRFDYV; listed as Homo sapiens) [compound 57] | ++ (≧20% = ++)

Next, values leading:

Peptide exchange (MHC class I binding score, peptide exchange yield) | Substance
+++ (≧50 = +++) | 207 (KLFETVEEL; listed as Homo sapiens) [compound 207]
+++ (≧50 = +++) | 139 (IILENIQSL; listed as Homo sapiens) [compound 139]
++ (≧20% = ++) | 184 (ALDSTIAHL; listed as Homo sapiens) [compound 184]
+++ (≧50 = +++) | 167 (LVVDEGSLVSV; listed as Homo sapiens) [compound 167]
+++ (≧50 = +++) | 244 (NVAEIVIHI; listed as Homo sapiens) [compound 244]
++ (≧20% = ++) | 149 (NMADGQLHQV; listed as Homo sapiens) [compound 149]
++ (≧20% = ++) | 275 (AVPPPPSSV; listed as Homo sapiens) [compound 275]
++ (≧20% = ++) | 133 (FLDGRPLTL; listed as Homo sapiens) [compound 133]
+++ (≧50 = +++) | 195 (VIIQNLPAL; listed as Homo sapiens) [compound 195]
+++ (≧50 = +++) | 150 (VLLDMVHSL; listed as Homo sapiens) [compound 150]
++ (≧20% = ++) | 266 (FLLDKPQDL; listed as Homo sapiens) [compound 266]
++ (≧20% = ++) | 137 (KLIYKDLVSV; listed as Homo sapiens) [compound 137]
+ (≧10% = +) | 227 (SEMEELPSV; listed as Homo sapiens) [compound 227]
++ (≧20% = ++) | 245 (ALLEEEEGV; listed as Homo sapiens) [compound 245]
+++ (≧50 = +++) | 277 (KLQEELNKV; listed as Homo sapiens) [compound 277]
+++ (≧50 = +++) | 223 (ALHPVQFYL; listed as Homo sapiens) [compound 223]
+++ (≧50 = +++) | 217 (LLWPSSVPA; listed as Homo sapiens) [compound 217]
+++ (≧50 = +++) | 271 (VLIEYNFSI; listed as Homo sapiens) [compound 271]

Peptide exchange (MHC class I binding score, peptide exchange yield) | Substance
+++ (≧50 = +++) | 237 (ALLEQTGDMSL; listed as Homo sapiens) [compound 237]
++ (≧20% = ++) | 272 (FVMEGEPPKL; listed as Homo sapiens) [compound 272]
+++ (≧50 = +++) | 261 (GLAALAVHL; listed as Homo sapiens) [compound 261]
+++ (≧50 = +++) | 193 (ALFHMNILL; listed as Homo sapiens) [compound 193]
+++ (≧50 = +++) | 200 (IMPTFDLTKV; listed as Homo sapiens) [compound 200]
++++ (≧75% = ++++) | 178 (SLVSWQLLL; listed as Homo sapiens) [compound 178]
+++ (≧50 = +++) | 143 (MLWESIMRV; listed as Homo sapiens) [compound 143]
+++ (≧50 = +++) | 168 (VIFEGEPMYL; listed as Homo sapiens) [compound 168]
+++ (≧50 = +++) | 191 (AAIEIFEKV; listed as Homo sapiens) [compound 191]
++ (≧20% = ++) | 170 (FIAAVVEKV; listed as Homo sapiens) [compound 170]
+++ (≧50 = +++) | 226 (SLAGNLQEL; listed as Homo sapiens) [compound 226]
++ (≧20% = ++) | 252 (SLMEKNQSL; listed as Homo sapiens) [compound 252]
++ (≧20% = ++) | 222 (LLTGVFAQL; listed as Homo sapiens) [compound 222]
+++ (≧50 = +++) | 169 (ALADLSVAV; listed as Homo sapiens) [compound 169]
++ (≧20% = ++) | 141 (NIDINNNEL; listed as Homo sapiens) [compound 141]
+++ (≧50 = +++) | 179 (TLGEIIKGV; listed as Homo sapiens) [compound 179]
++ (≧20% = ++) | 188 (VLGEEQEGV; listed as Homo sapiens) [compound 188]
